Data: patent publication US8673311B2 (priority 2009, dated 2014)

System: PY79 spores
Type: physicochemical, B. subtilis

Substance: listeriolysin from Listeria monocytogenes: immunogen shown to bind to the spore
- binding of other immunogens to the spore: can bind to the spore in a pH-dependant manner
